The source of these data is patent publication CN108314731A (ZHUHAI TAINUO MAIBO BIOTECHNOLOGY CO LTD; GUANGZHOU …, dated 2018).

In general, Kd refers to the concentration at which binding is half-saturated. In general, koff refers to the first-order rate constant of dissociation. Lower therefore signals a long-lived complex. What is called kon is the rate constant with which the complex forms.

In the assay the target is 破伤风类毒素 (tetanus toxoid) (破伤风杆菌 (Clostridium tetani), UniProt P04958 2-1315).
Chain of 破伤风类毒素 (tetanus toxoid) (P04958 2-457 limits assumed, chain 1 of 2): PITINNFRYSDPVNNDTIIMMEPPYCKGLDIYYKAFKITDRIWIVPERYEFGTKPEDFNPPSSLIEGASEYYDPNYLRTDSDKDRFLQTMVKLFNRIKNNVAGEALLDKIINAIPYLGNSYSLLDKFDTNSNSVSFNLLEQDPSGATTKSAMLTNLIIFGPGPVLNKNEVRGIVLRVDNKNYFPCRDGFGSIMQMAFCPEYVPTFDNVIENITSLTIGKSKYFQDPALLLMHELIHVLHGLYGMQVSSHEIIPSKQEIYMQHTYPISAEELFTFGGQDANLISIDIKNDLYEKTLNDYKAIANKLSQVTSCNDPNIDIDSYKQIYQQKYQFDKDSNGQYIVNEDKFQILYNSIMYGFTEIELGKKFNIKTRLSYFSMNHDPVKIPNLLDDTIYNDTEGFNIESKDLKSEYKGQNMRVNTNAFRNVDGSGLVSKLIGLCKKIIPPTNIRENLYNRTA
Chain of 破伤风类毒素 (tetanus toxoid) (P04958 458-1315 limits assumed, chain 2 of 2): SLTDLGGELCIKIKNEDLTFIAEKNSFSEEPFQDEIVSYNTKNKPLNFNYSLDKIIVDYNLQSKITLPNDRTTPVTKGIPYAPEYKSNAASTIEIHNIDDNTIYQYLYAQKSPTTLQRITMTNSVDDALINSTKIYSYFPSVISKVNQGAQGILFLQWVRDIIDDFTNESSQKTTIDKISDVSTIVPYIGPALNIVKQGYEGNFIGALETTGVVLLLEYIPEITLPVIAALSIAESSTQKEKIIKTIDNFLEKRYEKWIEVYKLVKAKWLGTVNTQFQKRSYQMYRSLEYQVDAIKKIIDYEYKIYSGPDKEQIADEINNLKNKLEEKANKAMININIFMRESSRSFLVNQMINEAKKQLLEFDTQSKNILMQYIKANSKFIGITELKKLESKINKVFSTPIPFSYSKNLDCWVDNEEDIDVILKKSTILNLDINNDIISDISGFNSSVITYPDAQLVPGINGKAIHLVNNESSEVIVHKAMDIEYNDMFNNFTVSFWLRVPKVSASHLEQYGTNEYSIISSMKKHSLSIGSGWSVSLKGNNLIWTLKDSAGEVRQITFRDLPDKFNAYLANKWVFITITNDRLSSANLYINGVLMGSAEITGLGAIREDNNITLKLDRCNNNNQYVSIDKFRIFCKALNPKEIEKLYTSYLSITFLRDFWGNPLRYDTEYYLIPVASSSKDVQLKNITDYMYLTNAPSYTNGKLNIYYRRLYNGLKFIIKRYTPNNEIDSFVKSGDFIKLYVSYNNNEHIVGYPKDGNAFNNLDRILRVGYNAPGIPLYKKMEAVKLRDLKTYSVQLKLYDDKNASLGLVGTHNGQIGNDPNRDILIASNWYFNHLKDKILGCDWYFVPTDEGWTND

B1: TRN0010抗体 (全人源抗破伤风毒素中和抗体) (antibody, V domains shown)
VH: QVQLQESGPGLVKPSETLSLRCTVSGGSISSYYWSWFRQPPGKGLEWIGYVHYSGSTNYNPSLKSRFTLSVDTSKSQFSLRLRSVTAADTAIYYCARDKYQTDVSDIWGQGTVVTVSS
VL: DIQMTQSPGTLSLSPGERATLSCRASQSITSSFLAWYQQKPGQAPRLLIYGASSRATGIPDRFSGSGSGTDFILTISRLEPEDFAVYYCQQYDTSRTFGQGTTVEIK
Consider B1, for which the dissociation constant (Kd) came to 3.68 nM, the koff amounted to 0.000153 s⁻¹ and the on-rate (kon) is 41500 M⁻¹ s⁻¹.
